In paper doi:10.1101/2021.03.30.437644:
Substitutions are numbered along the chain they refer to.

Tests used:
GBF1 (bZIP41) = molecular target: T1, GBF1 (bZIP41) (Arabidopsis thaliana (Col-0), UniProt P42774 1-315); assay: EMSA
T1 sequence: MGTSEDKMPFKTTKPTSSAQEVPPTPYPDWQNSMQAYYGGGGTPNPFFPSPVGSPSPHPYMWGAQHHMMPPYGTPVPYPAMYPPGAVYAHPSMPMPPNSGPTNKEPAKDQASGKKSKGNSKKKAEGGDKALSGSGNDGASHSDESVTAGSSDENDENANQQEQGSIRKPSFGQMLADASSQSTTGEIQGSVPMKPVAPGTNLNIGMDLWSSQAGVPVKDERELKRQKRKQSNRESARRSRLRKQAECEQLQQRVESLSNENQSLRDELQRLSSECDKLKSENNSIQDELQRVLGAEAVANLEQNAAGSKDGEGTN

HYH (bZIP64) [1] = molecular target: T2, HYH (bZIP64) (Arabidopsis thaliana (Col-0), UniProt Q8W191 1-149); assay: EMSA
T2 sequence: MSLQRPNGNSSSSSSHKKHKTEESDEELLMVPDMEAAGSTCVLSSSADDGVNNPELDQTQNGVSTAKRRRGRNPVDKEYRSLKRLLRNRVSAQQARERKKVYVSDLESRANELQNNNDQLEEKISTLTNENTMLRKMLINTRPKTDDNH

bZIP16 [2] = molecular target: T3, bZIP16 (Arabidopsis thaliana (Col-0), UniProt Q501B2 1-409); assay: EMSA
T3 sequence: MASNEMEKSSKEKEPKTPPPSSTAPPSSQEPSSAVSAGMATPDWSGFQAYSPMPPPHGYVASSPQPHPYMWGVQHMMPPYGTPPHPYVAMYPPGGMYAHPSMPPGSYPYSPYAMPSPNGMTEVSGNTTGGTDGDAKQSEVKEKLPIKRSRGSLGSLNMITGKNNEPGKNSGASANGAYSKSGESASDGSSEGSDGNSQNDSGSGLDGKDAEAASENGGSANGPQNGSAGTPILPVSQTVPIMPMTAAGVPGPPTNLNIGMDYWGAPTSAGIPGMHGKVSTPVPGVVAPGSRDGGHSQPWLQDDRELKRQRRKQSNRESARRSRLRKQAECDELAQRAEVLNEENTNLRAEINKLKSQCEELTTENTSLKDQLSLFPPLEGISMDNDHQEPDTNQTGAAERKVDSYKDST

bZIP44 [3] = molecular target: T4, bZIP44 (Arabidopsis thaliana (Col-0), UniProt C0Z2L5 1-173); assay: EMSA
SLIM1 = molecular target: T5, SLIM1 (Arabidopsis thaliana (Col-0), UniProt O23116 1-567); assay: EMSA
T5 sequence: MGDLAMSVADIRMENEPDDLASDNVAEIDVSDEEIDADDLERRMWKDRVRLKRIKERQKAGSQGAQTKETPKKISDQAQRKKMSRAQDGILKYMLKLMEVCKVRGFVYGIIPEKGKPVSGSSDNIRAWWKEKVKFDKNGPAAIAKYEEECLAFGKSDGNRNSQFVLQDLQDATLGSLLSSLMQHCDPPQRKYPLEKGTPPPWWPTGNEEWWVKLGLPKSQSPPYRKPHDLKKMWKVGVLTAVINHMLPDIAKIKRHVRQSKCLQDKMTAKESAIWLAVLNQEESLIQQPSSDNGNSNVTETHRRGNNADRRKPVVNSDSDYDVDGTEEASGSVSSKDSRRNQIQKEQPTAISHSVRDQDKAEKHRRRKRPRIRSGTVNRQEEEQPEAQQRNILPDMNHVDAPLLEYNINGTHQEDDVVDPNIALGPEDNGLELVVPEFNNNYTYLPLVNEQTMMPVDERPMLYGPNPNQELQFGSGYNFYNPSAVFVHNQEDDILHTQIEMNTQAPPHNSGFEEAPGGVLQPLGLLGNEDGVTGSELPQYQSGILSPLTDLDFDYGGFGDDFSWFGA

HYH (bZIP64) [4] = molecular target: T2, HYH (bZIP64); assay: competition EMSA
bZIP16 [5] = molecular target: T3, bZIP16; assay: competition EMSA
bZIP44 [6] = molecular target: T4, bZIP44; assay: competition EMSA

T4 sequence (C0Z2L5 whole entry): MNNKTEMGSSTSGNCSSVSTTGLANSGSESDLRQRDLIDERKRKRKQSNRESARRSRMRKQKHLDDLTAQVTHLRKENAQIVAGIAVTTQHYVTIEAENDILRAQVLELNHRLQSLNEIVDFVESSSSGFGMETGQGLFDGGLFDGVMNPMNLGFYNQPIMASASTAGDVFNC

B1: Probe 3 (proxSDI2) (dsDNA)
DNA 1: GACCAGCCCGCGGTATTTTAGATCCAGTTGACGATAATGAACCAAGACGA
DNA 2: TCGTCTTGGTTCATTATCGTCAACTGGATCTAAAATACCGCGGGCTGGTC
- binding result (GBF1 (bZIP41)): binds

B2: Probe 4 (proxSDI2) (dsDNA)
DNA 1: GACGGATAGGGTACGTGGCACTATTTTATA
DNA 2: TATAAAATAGTGCCACGTACCCTATCCGTC
- binding result (HYH (bZIP64) [1]): binds
- binding result (bZIP16 [2]): binds
- binding result (bZIP44 [3]): binds

B3: Probe 1 (proxSDI1) (dsDNA)
DNA 1: GTGGTAAGAAGTCTCCAAGTGACGTGGCAGCTTCTATGAACAGAGACGAA
DNA 2: TTCGTCTCTGTTCATAGAAGCTGCCACGTCACTTGGAGACTTCTTACCAC
- binding result (SLIM1): binds

B4: Mutated probe 4 (dsDNA)
DNA 1: B2 DNA 1 with C14A, G15A, T16A
DNA 2: B2 DNA 2 with A15T, C16T, G17T
- binding result (HYH (bZIP64) [4]): no binding
- binding result (bZIP16 [5]): no binding
- binding result (bZIP44 [6]): no binding

B5: Probe 2 (proxSDI2) (dsDNA)
DNA 1: GAGAGATAAAGAAGGTTTCTTCATTTAGAAACAGAGACACGAAGTTTGCG
DNA 2: CGCAAACTTCGTGTCTCTGTTTCTAAATGAAGAAACCTTCTTTATCTCTC
- binding result (SLIM1): binds
